Measurements as given in the supplement of paper PMC10567573.

B1: SLC6A17 (parent)
chain: HMFTPKLDKMLDPQVWREAATQVF

Variants of: B1
Assay: protein stability index of a GFP-peptide fusion (GPS, HEK-293T) (PSI 1-6); higher = more stable
Conditions: c terminus: a fixed tail appended
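Note: lentivirally expressed fusions sorted by FACS into six bins by GFP to DsRed ratio, PSI derived from sequencing read proportions per bin multiplied by bin number.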

Variant	protein stability index
HMFTPKCDKMLDPQVWREAATQVF [L7C]	1.86
HMFTPKDDKMLDPQVWREAATQVF [L7D]	2.55
HMFTPKYDKMLDPQVWREAATQVF [L7Y]	1.46
HMFTPKNDKMLDPQVWREAATQVF [L7N]	1.99
HMFTPKRDKMLDPQVWREAATQVF [L7R]	1.89
HMFTPKIDKMLDPQVWREAATQVF [L7I]	1.4
HMFTPKEDKMLDPQVWREAATQVF [L7E]	2.86
HMFTPKGDKMLDPQVWREAATQVF [L7G]	2.24
HMFTPKSDKMLDPQVWREAATQVF [L7S]	2.02
HMFTPKPDKMLDPQVWREAATQVF [L7P]	2.1
HMFTPKQDKMLDPQVWREAATQVF [L7Q]	2.55
HMFTPKMDKMLDPQVWREAATQVF [L7M]	2.38
HMFTPKWDKMLDPQVWREAATQVF [L7W]	1.62
HMFTPKKDKMLDPQVWREAATQVF [L7K]	2.73
HMFTPKVDKMLDPQVWREAATQVF [L7V]	1.79
HMFTPKADKMLDPQVWREAATQVF [L7A]	1.94
HMFTPKTDKMLDPQVWREAATQVF [L7T]	2.27
HMFTPKFDKMLDPQVWREAATQVF [L7F]	1.8
HMFTPKHDKMLDPQVWREAATQVF [L7H]	1.79
HMFTPKLDKMLDLQVWREAATQVF [P13L]	1.86
HMFTPKLDKMLDFQVWREAATQVF [P13F]	1.67
HMFTPKLDKMLDIQVWREAATQVF [P13I]	1.29
HMFTPKLDKMLDEQVWREAATQVF [P13E]	2.4
HMFTPKLDKMLDQQVWREAATQVF [P13Q]	2.19

Variant	protein stability index
HMFTPKLDKMLDHQVWREAATQVF [P13H]	1.54
HMFTPKLDKMLDAQVWREAATQVF [P13A]	2
HMFTPKLDKMLDNQVWREAATQVF [P13N]	2.4
HMFTPKLDKMLDVQVWREAATQVF [P13V]	2.11
HMFTPKLDKMLDMQVWREAATQVF [P13M]	2.33
HMFTPKLDKMLDSQVWREAATQVF [P13S]	1.93
HMFTPKLDKMLDKQVWREAATQVF [P13K]	2.34
HMFTPKLDKMLDYQVWREAATQVF [P13Y]	1.69
HMFTPKLDKMLDTQVWREAATQVF [P13T]	1.76
HMFTPKLDKMLDWQVWREAATQVF [P13W]	1
HMFTPKLDKMLDDQVWREAATQVF [P13D]	1.79
HMFTPKLDKMLDCQVWREAATQVF [P13C]	1.82
HMFTPKLDKMLDPQVIREAATQVF [W16I]	2.33
HMFTPKLDKMLDPQVEREAATQVF [W16E]	3.76
HMFTPKLDKMLDPQVKREAATQVF [W16K]	2.94
HMFTPKLDKMLDPQVDREAATQVF [W16D]	3.83
HMFTPKLDKMLDPQVCREAATQVF [W16C]	2.75
HMFTPKLDKMLDPQVAREAATQVF [W16A]	2.47
HMFTPKLDKMLDPQVHREAATQVF [W16H]	3.88
HMFTPKLDKMLDPQVLREAATQVF [W16L]	2.34
HMFTPKLDKMLDPQVGREAATQVF [W16G]	3.27
HMFTPKLDKMLDPQVFREAATQVF [W16F]	2.47
HMFTPKLDKMLDPQPWREAATQVF [V15P]	2.81
HMFTPKLDKMLDPQIWREAATQVF [V15I]	1.35

Variant	protein stability index
HMFTPKLDKMLDPQQWREAATQVF [V15Q]	1.89
HMFTPKLDKMLDPQNWREAATQVF [V15N]	1.9
HMFTPKLDKMLDPQHWREAATQVF [V15H]	2.34
HMFTPKLDKMLDPQFWREAATQVF [V15F]	2.22
HMFTPKLDKMLDPQCWREAATQVF [V15C]	2.12
HMFTPKLDKMLDPQEWREAATQVF [V15E]	2.84
HMFTPKLDKMLDPQRWREAATQVF [V15R]	3.24
HMFTPKLDKMLDPQLWREAATQVF [V15L]	2.37
HMFTPKLDKMLDPQDWREAATQVF [V15D]	2.96
HMFTPKLDKMLDPQKWREAATQVF [V15K]	2.39
HMFTPKLDKMLDPQTWREAATQVF [V15T]	2.66
HMFTPKLDKMLDPQMWREAATQVF [V15M]	1.63
HMFTPKLDKMLDPQYWREAATQVF [V15Y]	2.12
HMFTPKLDKMLDPQSWREAATQVF [V15S]	2.15
HMFTPKLDKMLDPQWWREAATQVF [V15W]	2.24
HMFTPKLDKMLDPQGWREAATQVF [V15G]	1.96
HMFTPKLDKMLDPQAWREAATQVF [V15A]	2.38
HMFTPKLDKMLGPQVWREAATQVF [D12G]	1.3
HMFTPKLDKMLYPQVWREAATQVF [D12Y]	1.34
HMFTPKLDKMLNPQVWREAATQVF [D12N]	1.34
HMFTPKLDKMLEPQVWREAATQVF [D12E]	1.39
HMFTPKLDKMLIPQVWREAATQVF [D12I]	1.79
HMFTPKLDKMLQPQVWREAATQVF [D12Q]	2.2
HMFTPKLDKMLKPQVWREAATQVF [D12K]	1.63

Variant	protein stability index
HMFTPKLDKMLFPQVWREAATQVF [D12F]	1.63
HMFTPKLDKMLSPQVWREAATQVF [D12S]	1.98
HMFTPKLDKMLHPQVWREAATQVF [D12H]	1.66
HMFTPKLDKMLMPQVWREAATQVF [D12M]	1.42
HMFTPKLDKMLVPQVWREAATQVF [D12V]	1.32
HMFTPKLDKMLCPQVWREAATQVF [D12C]	2.67
HMFTPKLDKMLWPQVWREAATQVF [D12W]	2.8
HMFTPKLDKMLTPQVWREAATQVF [D12T]	2.45
HMFTPKLDKMLAPQVWREAATQVF [D12A]	1.98
HMFTPKLDKMLRPQVWREAATQVF [D12R]	1.81
HMFTPKLDKMLPPQVWREAATQVF [D12P]	1.91
HMFTPKLDKLLDPQVWREAATQVF [M10L]	3.08
HMFTPKLDKWLDPQVWREAATQVF [M10W]	2.05
HMFTPKLDKVLDPQVWREAATQVF [M10V]	1.85
HMFTPKLDKDLDPQVWREAATQVF [M10D]	2.63
HMFTPKLDKGLDPQVWREAATQVF [M10G]	2.15
HMFTPKLDKQLDPQVWREAATQVF [M10Q]	2.78
HMFTPKLDKNLDPQVWREAATQVF [M10N]	1.99
HMFTPKLDKHLDPQVWREAATQVF [M10H]	1.42
HMFTPKLDKFLDPQVWREAATQVF [M10F]	2.59
HMFTPKLDKPLDPQVWREAATQVF [M10P]	2.4
HMFTPKLDKELDPQVWREAATQVF [M10E]	2.57
HMFTPKLDKKLDPQVWREAATQVF [M10K]	1.78
HMFTPKLDKTLDPQVWREAATQVF [M10T]	1.66

Variant	protein stability index
HMFTPKLDKSLDPQVWREAATQVF [M10S]	2.17
HMFTPKLDKCLDPQVWREAATQVF [M10C]	2.31
HMFTPKLDKYLDPQVWREAATQVF [M10Y]	2.23
HMFTPKLDKILDPQVWREAATQVF [M10I]	1.74
HMFTPKLDKRLDPQVWREAATQVF [M10R]	1.78
HMFTPILDKMLDPQVWREAATQVF [K6I]	1.7
HMFTPTLDKMLDPQVWREAATQVF [K6T]	1.74
HMFTPYLDKMLDPQVWREAATQVF [K6Y]	2.85
HMFTPMLDKMLDPQVWREAATQVF [K6M]	1.62
HMFTPLLDKMLDPQVWREAATQVF [K6L]	2.1
HMFTPSLDKMLDPQVWREAATQVF [K6S]	1.89
HMFTPPLDKMLDPQVWREAATQVF [K6P]	2.01
HMFTPFLDKMLDPQVWREAATQVF [K6F]	1.65
HMFTPNLDKMLDPQVWREAATQVF [K6N]	2.11
HMFTPVLDKMLDPQVWREAATQVF [K6V]	1.24
HMFTPGLDKMLDPQVWREAATQVF [K6G]	1.8
HMFTPHLDKMLDPQVWREAATQVF [K6H]	1.83
HMFTPRLDKMLDPQVWREAATQVF [K6R]	1.76
HMFTPWLDKMLDPQVWREAATQVF [K6W]	2.1
HMFTPQLDKMLDPQVWREAATQVF [K6Q]	1.51
HMFTPKLDKMTDPQVWREAATQVF [L11T]	2.18
HMFTPKLDKMNDPQVWREAATQVF [L11N]	2.29
HMFTPKLDKMKDPQVWREAATQVF [L11K]	2.24
HMFTPKLDKMHDPQVWREAATQVF [L11H]	2.23

Variant	protein stability index
HMFTPKLDKMADPQVWREAATQVF [L11A]	1.55
HMFTPKLDKMWDPQVWREAATQVF [L11W]	1.63
HMFTPKLDKMSDPQVWREAATQVF [L11S]	2.18
HMFTPKLDKMGDPQVWREAATQVF [L11G]	2.9
HMFTPKLDKMYDPQVWREAATQVF [L11Y]	2.43
HMFTPKLDKMRDPQVWREAATQVF [L11R]	3.13
HMFTPKLDKMFDPQVWREAATQVF [L11F]	2.33
HMFTPKLDKMVDPQVWREAATQVF [L11V]	1.87
HMFTPKLDKMDDPQVWREAATQVF [L11D]	1.87
HMFTPKLDKMQDPQVWREAATQVF [L11Q]	2.35
HMFTPKLDKMCDPQVWREAATQVF [L11C]	2.17
HMFTPKLDKMPDPQVWREAATQVF [L11P]	2.16
HMFTPKLDKMIDPQVWREAATQVF [L11I]	2.39
HMFTPKLDKMMDPQVWREAATQVF [L11M]	2.05
HMFTPKLDKMLDPHVWREAATQVF [Q14H]	1.74
HMFTPKLDKMLDPIVWREAATQVF [Q14I]	1.12
HMFTPKLDKMLDPYVWREAATQVF [Q14Y]	2.03
HMFTPKLDKMLDPGVWREAATQVF [Q14G]	1.56
HMFTPKLDKMLDPFVWREAATQVF [Q14F]	2.13
HMFTPKLDKMLDPNVWREAATQVF [Q14N]	2.23
HMFTPKLDKMLDPTVWREAATQVF [Q14T]	2.23
HMFTPKLDKMLDPLVWREAATQVF [Q14L]	2.14
HMFTPKLDKMLDPSVWREAATQVF [Q14S]	1.59
HMFTPKLDKMLDPMVWREAATQVF [Q14M]	2.06

Variant	protein stability index
HMFTPKLDKMLDPVVWREAATQVF [Q14V]	2.51
HMFTPKLDKMLDPAVWREAATQVF [Q14A]	1.73
HMFTPKLDKMLDPKVWREAATQVF [Q14K]	2.26
HMFTPKLDKMLDPWVWREAATQVF [Q14W]	1.69
HMFTPKLDKMLDPRVWREAATQVF [Q14R]	1.94
HMFTPKLDKMLDPEVWREAATQVF [Q14E]	2.41
HMFTPKLDKMLDPPVWREAATQVF [Q14P]	1.63
HMFTPKLDTMLDPQVWREAATQVF [K9T]	2.1
HMFTPKLDHMLDPQVWREAATQVF [K9H]	2.94
HMFTPKLDSMLDPQVWREAATQVF [K9S]	1.53
HMFTPKLDWMLDPQVWREAATQVF [K9W]	2.95
HMFTPKLDQMLDPQVWREAATQVF [K9Q]	1.92
HMFTPKLDVMLDPQVWREAATQVF [K9V]	1.5
HMFTPKLDDMLDPQVWREAATQVF [K9D]	2.63
HMFTPKLDIMLDPQVWREAATQVF [K9I]	1.66
HMFTPKLDFMLDPQVWREAATQVF [K9F]	1.52
HMFTPKLDNMLDPQVWREAATQVF [K9N]	2.04
HMFTPKLDAMLDPQVWREAATQVF [K9A]	1.21
HMFTPKLDMMLDPQVWREAATQVF [K9M]	2.03
HMFTPKLDRMLDPQVWREAATQVF [K9R]	2.42
HMFTPKLDLMLDPQVWREAATQVF [K9L]	1.83
HMFTPKLDGMLDPQVWREAATQVF [K9G]	1.25
HMFTPKLDYMLDPQVWREAATQVF [K9Y]	1.33
HMFTPKLDPMLDPQVWREAATQVF [K9P]	3.02

Variant	protein stability index
HMFTPKLDEMLDPQVWREAATQVF [K9E]	1.58
HMFTPKLFKMLDPQVWREAATQVF [D8F]	2.81
HMFTPKLVKMLDPQVWREAATQVF [D8V]	1.34
HMFTPKLSKMLDPQVWREAATQVF [D8S]	2.3
HMFTPKLKKMLDPQVWREAATQVF [D8K]	2.79
HMFTPKLGKMLDPQVWREAATQVF [D8G]	2.06
HMFTPKLCKMLDPQVWREAATQVF [D8C]	1.67
HMFTPKLWKMLDPQVWREAATQVF [D8W]	1.86
HMFTPKLQKMLDPQVWREAATQVF [D8Q]	1.87
HMFTPKLLKMLDPQVWREAATQVF [D8L]	1.76
HMFTPKLMKMLDPQVWREAATQVF [D8M]	1.81
HMFTPKLPKMLDPQVWREAATQVF [D8P]	3.01
HMFTPKLIKMLDPQVWREAATQVF [D8I]	1.65
HMFTPKLHKMLDPQVWREAATQVF [D8H]	1.84
HMFTPKLTKMLDPQVWREAATQVF [D8T]	2.27
HMFTPKLNKMLDPQVWREAATQVF [D8N]	2.33
HMFTPKLRKMLDPQVWREAATQVF [D8R]	3.33
HMFTPKLEKMLDPQVWREAATQVF [D8E]	1.5
HMFTPKLAKMLDPQVWREAATQVF [D8A]	1.82
HMFTPKLYKMLDPQVWREAATQVF [D8Y]	2
